# According to PMC4110284:
# Key:
# [1] = target: mutant IgG4 with Pro222 (human); experiment: AUC; sedimentation velocity, 40,000 rpm, SEDFIT c(s) analysis with integration of the monomer and dimer peaks; IgG4(Ser222) 0.5-8 mg/ml in PBS-50, PBS-137 and PBS-250 in H2O at 20 °C and in PBS-137 in 2H2O at 6, 20 and 30 °C; IgG4(Pro222) 0.5-2.5 mg/ml in PBS-137 in H2O at 20 °C; pH 7.4; dimer to monomers
# [2] = target: wild-type human-mouse chimera IgG4 B72.3 with Ser222 (human); experiment: as above
percent dimer [1] [%],stoichiometry N [1],Kd [2] [µM],percent dimer [2] [%],stoichiometry N [2],Molecule
2 to 3,2,–,–,–,mutant IgG4 with Pro222 (antibody)
–,–,600 to 3000,1 to 3,2,"wild-type human-mouse chimera IgG4 B72.3 with Ser222 (antibody, V domains shown) VH: QVQLQQSDAELVKPGASVKISCKASGYTFTDHAIHWAKQKPEQGLEWIGYISPGNDDIKYNEKFKGKATLTADKSSSTAYMQLNSLTSEDSAVYFCKRSYYGHWGQGTTLTVSS VL: DIQMTQSPASLSVSVGETVTITCRASENIYSNLAWYQQKQGKSPQLLVYAATNLADGVPSRFSGSGSGTQYSLKINSLQSEDFGSYYCQHFWGTPYTFGGGTRLEIK"
